Experimental data from patent US20150299259A1 (FORSCHUNGSZENTRUM JUELICH, published 2015).
Where no end group is shown, it is not given here. [ ]: non-standard residue; d: D form.

What was measured:
[1] = biological target: full-length tau protein (441 amino acids) (UniProt P10636-8 1-441, limits assumed); assay: cell-based or functional assay
[2] = biological target: T1, PHF-6 (6-mer tau fragment 306VQIVYK311); assay: regular phage display and single-phage ELISA on L-PHF-6 fibrils
T1 construct: Used as fibrillary (aggregated) material; The mirror image selections used its synthetic D-enantiomer (D-PHF-6); also called L-PHF-6; aggregated tau partial peptide
T1 peptide: VQIVYK
Procedure: A phage display kit made by Biolabs was used for the following selections. At the same time, a regular phage display was carried out for the selection of L-peptides. In this regard, obtaining binding motifs after database searches allows conclusions to be drawn concerning previously unknown binding partners in vivo. Moreover, binding partners can later be tested as D-peptides or retro-inverso peptides. After selection, enriched phages were isolated and single-phage ELISA assays were carried out. […] The D-peptides Apt and Knt stem from selections against […]. Against L-PHF-6, a peptide having the sequence […] was selected, which we also analyzed in D-enantiomeric form (TD28) and as a retro-inverso peptide (TD28ri).

full-length tau protein (441 amino acids), sequence (P10636 other isoform, or with tags, fused parts or gaps limits assumed): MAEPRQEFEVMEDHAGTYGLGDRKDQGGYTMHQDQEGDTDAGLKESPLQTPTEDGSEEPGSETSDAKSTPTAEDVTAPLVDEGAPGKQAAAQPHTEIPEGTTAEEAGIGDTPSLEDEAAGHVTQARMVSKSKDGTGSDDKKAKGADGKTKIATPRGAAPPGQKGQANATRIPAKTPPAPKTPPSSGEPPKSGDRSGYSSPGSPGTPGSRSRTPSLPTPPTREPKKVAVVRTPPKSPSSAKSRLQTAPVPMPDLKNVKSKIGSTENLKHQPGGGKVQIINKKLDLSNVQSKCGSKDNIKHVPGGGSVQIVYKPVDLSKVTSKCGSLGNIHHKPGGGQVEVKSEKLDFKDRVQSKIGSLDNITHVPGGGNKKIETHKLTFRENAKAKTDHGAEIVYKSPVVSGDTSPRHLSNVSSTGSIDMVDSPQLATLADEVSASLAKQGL

For [dT][dL][dK][dI][dV][dW] [D-enantiomeric peptide tlkivw described by Sievers et al.], the “DLS particle size Day 1 (Tau + AA + peptide, 1:10)” value [1] was 6 fold and the “DLS particle size Day 8 (Tau + AA + peptide, 1:10)” value [1] was 6 fold.

B1: peptide having the sequence TTSLQMRLYYPP (peptide)
peptide: TTSLQMRLYYPP
modifications: not fully specified
notes: L-peptide selected by regular phage display against L-PHF-6; also called TL28
With B1 the “DLS particle size Day 1 (Tau + AA + peptide, 1:10)” value [1] was 5 fold, the “DLS particle size Day 8 (Tau + AA + peptide, 1:10)” value [1] was 4 fold and the binding result [2] was “binds”.
